This note sets out measurements from publication PMC9259969, “Biophysical Screening Pipeline for Cryo-EM Grid Preparation of Membrane Proteins” (Frontiers in Molecular Biosciences, 2022).

Series [1] deals with the molecule itself. The experiment in a line: mass photometry; 150 nM TolC in the presence of 0.003% DDM; controls with 0.03% and 0.003% DDM without protein.
Series [2] addresses Q9Y6I3. The experiment in a line: mass photometry; hENTH at 100 nM in the presence of 200 µM PI(4,5)P2; Refeyn OneMP; control: buffer with 200 µM PI(4,5)P2. As to conditions: other: mass photometry.

B1: TolC (natural protein, Escherichia coli, UniProt P02930 23-493, looked up)
chain: ENLMQVYQQARLSNPELRKSAADRDAAFEKINEARSPLLPQLGLGADYTYSNGYRDANGINSNATSASLQLTQSIFDMSKWRALTLQEKAAGIQDVTYQTDQQTLILNTATAYFNVLNAIDVLSYTQAQKEAIYRQLDQTTQRFNVGLVAITDVQNARAQYDTVLANEVTARNNLDNAVEQLRQITGNYYPELAALNVENFKTDKPQPVNALLKEAEKRNLSLLQARLSQDLAREQIRQAQDGHLPTLDLTASTGISDTSYSGSKTRGAAGTQYDDSNMGQNKVGLSFSLPIYQGGMVNSQVKQAQYNFVGASEQLESAHRSVVQTVRSSFNNINASISSINAYKQAVVSAQSSLDAMEAGYSVGTRTIVDVLDATTTLYNAKQELANARYNYLINQLNIKSALGTLNEQDLLALNNALSKPVSTNPENVAPQTPEQNAIADGYAPDSPAPVVQQTSARTTTSNGHNPFRN
notes: TolC, outer membrane protein of Escherichia coli; molecular weight of 161.7 kDa printed for the trimeric state; The protomer is written here; In DDM micelles in the assays; also called integral membrane protein TolC; source: E. coli C43(DE3)ΔAcrAB, solubilised in DDM, purified (HiTrap HP with imidazole elution, SEC)
On to B1, for which the binding result in series [1] was “binds”.

B2: Recombinant human ENTH domain from epsin-1 (hENTH) (protein)
chain: NIVHNYSEAEIKVREATSNDPWGPSSSLMSEIADLTYNVVAFSEIMSMIWKRLNDHGKNWRHVYKAMTLMEYLIKTGSERVSQQCKENMYAVQTLKDFQYVDRDGKDQGVNVREKAKQLVALLRDEDRLREER
For the protein B2, the “N with PI(4,5)P2” value in series [2] is “corresponding to a hexamer of hENTH in the presence of 200 µM PI(4,5)P2”.
